Paper PMC5719079

Legend:
[1] = target: Human recombinant hexaHis-tagged SIRT2 containing residues 50-356 (human) (UniProt Q8IXJ6); assay: ELISA; plate coated with 5 μg/ml SIRT2 overnight in PBS; TPPP/p25 or tubulin added in serial dilution, detected by TPPP/p25 or tubulin antibody; apparent Kd from a single binding site hyperbola; MZ242, MZ25 and SH1 up to 30 μM did not influence the binding of 125 nM TPPP/p25 significantly
[2] = target: Tubulin Polymerization Promoting Protein (TPPP/p25) (human) (UniProt O94811); assay: ELISA; plate coated with 5 ug/ml TPPP/p25 overnight in PBS; tubulin added at a serial dilution; bound tubulin detected by monoclonal tubulin antibody and HRP-conjugated secondary antibody; Kd from the saturation curve by a single binding site hyperbola model; apparent
Chain of UniProt O94811 (O94811 whole entry): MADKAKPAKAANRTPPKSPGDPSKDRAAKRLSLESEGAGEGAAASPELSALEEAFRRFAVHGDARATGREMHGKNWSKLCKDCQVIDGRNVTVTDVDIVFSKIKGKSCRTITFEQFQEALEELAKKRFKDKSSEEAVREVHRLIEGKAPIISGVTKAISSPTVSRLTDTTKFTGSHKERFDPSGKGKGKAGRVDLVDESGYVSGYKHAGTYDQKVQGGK

Chain of UniProt Q8IXJ6 (Q8IXJ6 50-356): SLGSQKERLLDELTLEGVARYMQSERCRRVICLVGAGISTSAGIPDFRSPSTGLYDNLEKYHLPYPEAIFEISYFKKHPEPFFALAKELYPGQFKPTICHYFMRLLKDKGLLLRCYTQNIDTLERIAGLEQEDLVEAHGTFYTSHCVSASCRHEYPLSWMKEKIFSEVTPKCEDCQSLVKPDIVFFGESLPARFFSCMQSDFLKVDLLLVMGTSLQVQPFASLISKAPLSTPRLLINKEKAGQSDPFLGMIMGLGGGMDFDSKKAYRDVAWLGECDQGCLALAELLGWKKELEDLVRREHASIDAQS

Kd [1] [nM] | Kd [2] [nM] | Substance
> 2000 |  | Tubulin prepared from bovine brain (from UniProt Q6B856 1-445) (complex)
 | 10 | tubulin (from UniProt Q6B856 1-445) (complex)
